Assay results as given in article PMC9306533 (Journal of Neurochemistry, 2022).

Legend:
[1] = target: GRK3 (G protein‐coupled receptor kinase 3) (UniProt P35626); assay: BRET, CB1R-YFP and GRK3-Rluc8; conditions: sites S425,S429
[2] = target: β‐arrestin2 (UniProt P32121); assay: BRET, CB1R-YFP and β-arrestin2-Rluc; conditions: reference: wild type; sites S425,S429
[3] = target: CB1R‐YFP (wild type) (human, UniProt P21554 1-472); assay: FRET or BRET
[4] = target: CB1R_2A‐YFP (human, UniProt P21554 1-472, S425A | S429A); assay: FRET or BRET
[5] = target: CB1R_6A‐YFP (human, UniProt P21554 1-472, serine/threonine residues of 460TMSVSTDTS468 to alanine); assay: FRET or BRET
[6] = target: CB1R_2D‐YFP (human, UniProt P21554 1-472, S425 mutated into aspartate | S429D); assay: FRET or BRET
[7] = target: CB1R_6D‐YFP (human, UniProt P21554 1-472, serine/threonine residues of 460TMSVSTDTS468 to aspartic acid); assay: FRET or BRET
[8] = reference: 460…468 mutant, S425/S429 intact

Cannabinoid receptor 1 (CB1R) (from UniProt P21554) CB1R_2D (S425D, S429D)
other: agonist-promoted mBRET at 5 min ([1]; reference: wild type): same; reference 35.54 ± 2.26 | other: agonist-promoted mBRET at 5 min [2]: weaker; reference 29.93 ± 1.51

Cannabinoid receptor 1 (CB1R) (from UniProt P21554) CB1R_2A (S425A, S429A)
other: agonist-promoted mBRET at 5 min ([1]; reference: wild type): stronger; reference 23.62 ± 3.54 | other: agonist-promoted mBRET at 5 min [2]: weaker; reference 29.33 ± 1.93

Cannabinoid receptor 1 (CB1R) (from UniProt P21554) 425AMGDA429_460…468
other: agonist-promoted mBRET at 5 min [1, 8]: weaker; reference 28.95 ± 2.18 | other: agonist-promoted mBRET at 30 min [1, 8]: stronger; reference 27.11 ± 3.71

B1: GRK3‐Rluc8 (enzyme, human, UniProt P35626 1-688, looked up)
chain: MADLEAVLADVSYLMAMEKSKATPAARASKRIVLPEPSIRSVMQKYLAERNEITFDKIFNQKIGFLLFKDFCLNEINEAVPQVKFYEEIKEYEKLDNEEDRLCRSRQIYDAYIMKELLSCSHPFSKQAVEHVQSHLSKKQVTSTLFQPYIEEICESLRGDIFQKFMESDKFTRFCQWKNVELNIHLTMNEFSVHRIIGRGGFGEVYGCRKADTGKMYAMKCLDKKRIKMKQGETLALNERIMLSLVSTGDCPFIVCMTYAFHTPDKLCFILDLMNGGDLHYHLSQHGVFSEKEMRFYATEIILGLEHMHNRFVVYRDLKPANILLDEHGHARISDLGLACDFSKKKPHASVGTHGYMAPEVLQKGTAYDSSADWFSLGCMLFKLLRGHSPFRQHKTKDKHEIDRMTLTVNVELPDTFSPELKSLLEGLLQRDVSKRLGCHGGGSQEVKEHSFFKGVDWQHVYLQKYPPPLIPPRGEVNAADAFDIGSFDEEDTKGIKLLDCDQELYKNFPLVISERWQQEVTETVYEAVNADTDKIEARKRAKNKQLGHEEDYALGKDCIMHGYMLKLGNPFLTQWQRRYFYLFPNRLEWRGEGESRQNLLTMEQILSVEETQIKDKKCILFRIKGGKQFVLQCESDPEFVQWKKELNETFKEAQRLLRRAPKFLNKPRSGTVELPKPSLCHRNSNGL
agonist-promoted mBRET at 30 min [3]: 8.82 mBRET | agonist-promoted mBRET at 5 min [4]: 63.6 mBRET | agonist-promoted mBRET at 5 min [5]: 9.88 mBRET | agonist-promoted mBRET at 5 min [6]: 31.7 mBRET | agonist-promoted mBRET at 5 min [7]: 27.5 mBRET
